The text below walks through data of patent publication US20230250154A1.

The target of the test is Protease Mixtures. As to the kind of experiment: cell-based or functional assay.

B1: Variant A2M, bait region SEQ ID NO 132, P01023 24-1474 (protein)
chain: SVSGKPQYMVLVPSLLHTETTEKGCVLLSYLNETVTVSASLESVRGNRSLFTDLEAENDVLHCVAFAVPKSSSNEEVMFLTVQVKGPTQEFKKRTTVMVKNEDSLVFVQTDKSIYKPGQTVKFRVVSMDENFHPLNELIPLVYIQDPKGNRIAQWQSFQLEGGLKQFSFPLSSEPFQGSYKVVVQKKSGGRTEHPFTVEEFVLPKFEVQVTVPKIITILEEEMNVSVCGLYTYGKPVPGHVTVSICRKYSDASDCHGEDSQAFCEKFSGQLNSHGCFYQQVKTKVFQLKRKEYEMKLHTEAQIQEEGTVVELTGRQSSEITRTITKLSFVKVDSHFRQGIPFFGQVRLVDGKGVPIPNKVIFIRGNEANYYSNATTDEHGLVQFSINTTNVMGTSLTVRVNYKDRSPCYGYQWVSEEHEEAHHTAYLVFSPSKSFVHLEPMSHELPCGHTQTVQAHYILNGGTLLGLKKLSFYYLIMAKGGIVRTGTHGLLVKQEDMKGHFSISIPVKSDIAPVARLLIYAVLPTGDVIGDSAKYDVENCLANKVDLSFSPSQSLPASHAHLRVTAAPQSVCALRAVDQSVLLMKPDAELSASSVYNLLPEKDLTGFPGPLNDQDDEDCINRHNVYINGITYTPVSSTNEKDMYSFLEDMGLKAFTNSKIRKPKMCPQLEQYEMHGPEGEGEGEGIPENFFGVSELEGRGSSEDLVVQIVEEPHTKLRKYFPETWIWDLVVVNSAGVAEVGVTVPDTITEWKAGAFCLSEDAGLGISSTASLRAFQPFFVELTMPYSVIRGEAFTLKATVLNYLPKCIRVSVQLEASPAFLAVPVEKEQAPHCICANGRQTVSWAVTPKSLGNVNFTVSAEALESQELCGTEVPSVPEHGRKDTVIKPLLVEPEGLEKETTFNSLLCPSGGEVSEELSLKLPPNVVEESARASVSVLGDILGSAMQNTQNLLQMPYGCGEQNMVLFAPNIYVLDYLNETQQLTPEIKSKAIGYLNTGYQRQLNYKHYDGSYSTFGERYGRNQGNTWLTAFVLKTFAQARAYIFIDEAHITQALIWLSQRQKDNGCFRSSGSLLNNAIKGGVEDEVTLSAYITIALLEIPLTVTHPVVRNALFCLESAWKTAQEGDHGSHVYTKALLAYAFALAGNQDKRKEVLKSLNEEAVKKDNSVHWERPQKPKAPVGHFYEPQAPSAEVEMTSYVLLAYLTAQPAPTSEDLTSATNIVKWITKQQNAQGGFSSTQDTVVALHALSKYGAATFTRTGKAAQVTIQSSGTFSSKFQVDNNNRLLLQQVSLPELPGEYSMKVTGEGCVYLQTSLKYNILPEKEEFPFALGVQTLPQTCDEPKAHTSFQISLSVSYTGSRSASNMAIVDVKMVSGFIPLKPTVKMLERSNHVSRTEVSSNHVLIYLDKVSNQTLSLFFTVLQDVPVRDLKPAIVKVYDYYETDEFAIAEYNAPCSKDLGNADYKDDDDKGASHHHHHH
For the molecule B1, the Protease Inhibition (% of WT); Protease Mixtures, Collagen Substrate was 120 % of WT and the Protease Inhibition (% of WT); Protease Mixtures, IGD Substrate is 243 % of WT.

B2: Variant A2M, bait region SEQ ID NO 129, P01023 24-1474 (protein)
chain: SVSGKPQYMVLVPSLLHTETTEKGCVLLSYLNETVTVSASLESVRGNRSLFTDLEAENDVLHCVAFAVPKSSSNEEVMFLTVQVKGPTQEFKKRTTVMVKNEDSLVFVQTDKSIYKPGQTVKFRVVSMDENFHPLNELIPLVYIQDPKGNRIAQWQSFQLEGGLKQFSFPLSSEPFQGSYKVVVQKKSGGRTEHPFTVEEFVLPKFEVQVTVPKIITILEEEMNVSVCGLYTYGKPVPGHVTVSICRKYSDASDCHGEDSQAFCEKFSGQLNSHGCFYQQVKTKVFQLKRKEYEMKLHTEAQIQEEGTVVELTGRQSSEITRTITKLSFVKVDSHFRQGIPFFGQVRLVDGKGVPIPNKVIFIRGNEANYYSNATTDEHGLVQFSINTTNVMGTSLTVRVNYKDRSPCYGYQWVSEEHEEAHHTAYLVFSPSKSFVHLEPMSHELPCGHTQTVQAHYILNGGTLLGLKKLSFYYLIMAKGGIVRTGTHGLLVKQEDMKGHFSISIPVKSDIAPVARLLIYAVLPTGDVIGDSAKYDVENCLANKVDLSFSPSQSLPASHAHLRVTAAPQSVCALRAVDQSVLLMKPDAELSASSVYNLLPEKDLTGFPGPLNDQDDEDCINRHNVYINGITYTPVSSTNEKDMYSFLEDMGLKAFTNSKIRKPKMCPQLEQYEMHGPEAIPMSIPTEGEGEGEGIPENFFGVSEDLVVQIVEEPHTKLRKYFPETWIWDLVVVNSAGVAEVGVTVPDTITEWKAGAFCLSEDAGLGISSTASLRAFQPFFVELTMPYSVIRGEAFTLKATVLNYLPKCIRVSVQLEASPAFLAVPVEKEQAPHCICANGRQTVSWAVTPKSLGNVNFTVSAEALESQELCGTEVPSVPEHGRKDTVIKPLLVEPEGLEKETTFNSLLCPSGGEVSEELSLKLPPNVVEESARASVSVLGDILGSAMQNTQNLLQMPYGCGEQNMVLFAPNIYVLDYLNETQQLTPEIKSKAIGYLNTGYQRQLNYKHYDGSYSTFGERYGRNQGNTWLTAFVLKTFAQARAYIFIDEAHITQALIWLSQRQKDNGCFRSSGSLLNNAIKGGVEDEVTLSAYITIALLEIPLTVTHPVVRNALFCLESAWKTAQEGDHGSHVYTKALLAYAFALAGNQDKRKEVLKSLNEEAVKKDNSVHWERPQKPKAPVGHFYEPQAPSAEVEMTSYVLLAYLTAQPAPTSEDLTSATNIVKWITKQQNAQGGFSSTQDTVVALHALSKYGAATFTRTGKAAQVTIQSSGTFSSKFQVDNNNRLLLQQVSLPELPGEYSMKVTGEGCVYLQTSLKYNILPEKEEFPFALGVQTLPQTCDEPKAHTSFQISLSVSYTGSRSASNMAIVDVKMVSGFIPLKPTVKMLERSNHVSRTEVSSNHVLIYLDKVSNQTLSLFFTVLQDVPVRDLKPAIVKVYDYYETDEFAIAEYNAPCSKDLGNADYKDDDDKGASHHHHHH
Turning to B2, the Protease Inhibition (% of WT); Protease Mixtures, IGD Substrate is 160 % of WT.

B3: Variant A2M, bait region SEQ ID NO 131, P01023 24-1474 (protein)
chain: SVSGKPQYMVLVPSLLHTETTEKGCVLLSYLNETVTVSASLESVRGNRSLFTDLEAENDVLHCVAFAVPKSSSNEEVMFLTVQVKGPTQEFKKRTTVMVKNEDSLVFVQTDKSIYKPGQTVKFRVVSMDENFHPLNELIPLVYIQDPKGNRIAQWQSFQLEGGLKQFSFPLSSEPFQGSYKVVVQKKSGGRTEHPFTVEEFVLPKFEVQVTVPKIITILEEEMNVSVCGLYTYGKPVPGHVTVSICRKYSDASDCHGEDSQAFCEKFSGQLNSHGCFYQQVKTKVFQLKRKEYEMKLHTEAQIQEEGTVVELTGRQSSEITRTITKLSFVKVDSHFRQGIPFFGQVRLVDGKGVPIPNKVIFIRGNEANYYSNATTDEHGLVQFSINTTNVMGTSLTVRVNYKDRSPCYGYQWVSEEHEEAHHTAYLVFSPSKSFVHLEPMSHELPCGHTQTVQAHYILNGGTLLGLKKLSFYYLIMAKGGIVRTGTHGLLVKQEDMKGHFSISIPVKSDIAPVARLLIYAVLPTGDVIGDSAKYDVENCLANKVDLSFSPSQSLPASHAHLRVTAAPQSVCALRAVDQSVLLMKPDAELSASSVYNLLPEKDLTGFPGPLNDQDDEDCINRHNVYINGITYTPVSSTNEKDMYSFLEDMGLKAFTNSKIRKPKMCPQLEQYEMHGPEGEGEGEGISEDLVVQIPENFFGVKEEEGLGSVEEPHTKLRKYFPETWIWDLVVVNSAGVAEVGVTVPDTITEWKAGAFCLSEDAGLGISSTASLRAFQPFFVELTMPYSVIRGEAFTLKATVLNYLPKCIRVSVQLEASPAFLAVPVEKEQAPHCICANGRQTVSWAVTPKSLGNVNFTVSAEALESQELCGTEVPSVPEHGRKDTVIKPLLVEPEGLEKETTFNSLLCPSGGEVSEELSLKLPPNVVEESARASVSVLGDILGSAMQNTQNLLQMPYGCGEQNMVLFAPNIYVLDYLNETQQLTPEIKSKAIGYLNTGYQRQLNYKHYDGSYSTFGERYGRNQGNTWLTAFVLKTFAQARAYIFIDEAHITQALIWLSQRQKDNGCFRSSGSLLNNAIKGGVEDEVTLSAYITIALLEIPLTVTHPVVRNALFCLESAWKTAQEGDHGSHVYTKALLAYAFALAGNQDKRKEVLKSLNEEAVKKDNSVHWERPQKPKAPVGHFYEPQAPSAEVEMTSYVLLAYLTAQPAPTSEDLTSATNIVKWITKQQNAQGGFSSTQDTVVALHALSKYGAATFTRTGKAAQVTIQSSGTFSSKFQVDNNNRLLLQQVSLPELPGEYSMKVTGEGCVYLQTSLKYNILPEKEEFPFALGVQTLPQTCDEPKAHTSFQISLSVSYTGSRSASNMAIVDVKMVSGFIPLKPTVKMLERSNHVSRTEVSSNHVLIYLDKVSNQTLSLFFTVLQDVPVRDLKPAIVKVYDYYETDEFAIAEYNAPCSKDLGNADYKDDDDKGASHHHHHH
Consider B3, for which the Protease Inhibition (% of WT); Protease Mixtures, IGD Substrate is 150 % of WT.
